Reference: PMC4303546 (Cell reports, 2014)

Molecular target: GATOR2 purified from HEK293T cells (UniProt Q9NXC5 1-875; Q6PJI9 1-974; Q96S15 1-790; Q96EE3 1-360; P55735 1-322)
Assay: pull-down

B1: GST-Sesn2 (natural protein, UniProt P58004 1-480, looked up)
chain: MIVADSECRAELKDYLRFAPGGVGDSGPGEEQRESRARRGPRGPSAFIPVEEVLREGAESLEQHLGLEALMSSGRVDNLAVVMGLHPDYFTSFWRLHYLLLHTDGPLASSWRHYIAIMAAARHQCSYLVGSHMAEFLQTGGDPEWLLGLHRAPEKLRKLSEINKLLAHRPWLITKEHIQALLKTGEHTWSLAELIQALVLLTHCHSLSSFVFGCGILPEGDADGSPAPQAPTPPSEQSSPPSRDPLNNSGGFESARDVEALMERMQQLQESLLRDEGTSQEEMESRFELEKSESLLVTPSADILEPSPHPDMLCFVEDPTFGYEDFTRRGAQAPPTFRAQDYTWEDHGYSLIQRLYPEGGQLLDEKFQAAYSLTYNTIAMHSGVDTSVLRRAIWNYIHCVFGIRYDDYDYGEVNQLLERNLKVYIKTVACYPEKTTRRMYNLFWRHFRHSEKVHVNLLLLEARMQAALLYALRAITRYMT
  binding result: binds
